The record followed here is patent US20120121504A1 (UNITED STATES OF AMERICA AS REPRESENTED BY THE SECRETARY …, published 2012).

Ends that are not written are not given here.

In assay [1] the target is T1, human CD52 (human, UniProt P31358 25-36, ends and bridges not checked).
T1 construct: whole, on cells; also called CD52 antigen
T1 chain (looked up): GQNDTSQTSSPS
Description: flow cytometry, MFI ratio grade (sample over background), allogeneic B cells.

The target in assay [2] is T1, human CD52. Briefly: flow cytometry, MFI ratio grade (sample over background), third party B cells. Background: Flow cytometry measures light scatter and fluorescence of single cells or particles in a stream.

B1: alemtuzumab (humanized anti-human CD52 mAb with human IgG1 kappa constant domains) (antibody, V domains shown)
VH: QVQLQESGPGLVRPSQTLSLTCTVSGFTFTDFYMNWVRQPPGRGLEWIGFIRDKAKGYTTEYNPSVKGRVTMLVDTSKNQFSLRLSSVTAADTAVYYCAREGHTAAPFDYWGQGSLVTVSS
VL: DIQMTQSPSSLSASVGDRVTITCKASQNIDKYLNWYQQKPGKAPKLLIYNTNNLQTGVPSRFSGSGSGTDFTFTISSLQPEDIATYYCLQHISRPRTFGQGTKVEIKR
With B1, the “MFI ratio (sample over background)” value in assay [1] and in assay [2] was > 100 ratio each time.
